# B1: N terminally hemagglutinin (HA) tagged Tgl2 (natural protein, S. cerevisiae, UniProt P54857 1-326, looked up)
# chain: MKNDNKANDIIIDSVKVPDSYKPPKNPIVFCHGLSGFDKLILIPSVFHLTNLISNSIVHNMAENFMQDDEDKSDNKYTNLLEIEYWIGVKKFLQSKGCTVITTKVPGFGSIEERAMALDAQLQKEVKKIESKDKRHSLNLIAHSMGGLDCRYLICNIKNRNYDILSLTTISTPHRGSEMADYVVDLFENLNALRVSQKILPICFYQLTTAYMKYFNLVTPNSPKVSYFSYGCSFVPKWYNVFCTPWKIVYERSKGCPNDGLVTINSSKWGEYRGTLKDMDHLDVINWKNKLQDDWSKFFRTTTVGEKVDILNFYLKITDDLARKGF
# notes: Tgl2, putative mitochondrial triacylglycerol lipase of the intermembrane space, S. cerevisiae; also called HA-Tgl2; native-like HA-Tgl2; source: S. cerevisiae (tgl2Δ, yme1Δ and other deletion strains), overexpressed from plasmid pYX142; in whole cell lysate, crude or isolated mitochondria; not shown: HA, N-terminal, kept
# Biological target: T1, N terminally FLAG-tagged Tgl2 (S. cerevisiae, UniProt P54857 1-326)
# T1 construct: Tgl2, S. cerevisiae; FLAG tag inserted at the N terminus of the ORF of Tgl2; the printed primer puts Met-FLAG directly before the second codon (AAA) of Tgl2; also called FLAG-Tgl2; source: S. cerevisiae tgl2Δ cells, coexpressed with HA-Tgl2 from plasmid pYX122; in solubilised mitochondria; not shown: FLAG, N-terminal, kept
# T1 sequence (looked up): B1 chain
# Experiment: native gel or EMSA; antibody shift assay: digitonin-solubilised mitochondria with HA-Tgl2 and FLAG-Tgl2 incubated with 0, 0.5 or 1 μl anti-HA antibody on ice for 30 min, BN-PAGE, immunodecoration with anti-FLAG
# Details: partners not purified
binder,measurement,value
B1,stoichiometry N,≥ 2

# Reference: paper PMC11889585, “Characterization of the putative yeast mitochondrial triacylglycerol lipase Tgl2” (The Journal of Biological Chemistry, 2025)
